Data as given in patent publication US20170355757A1 (Regeneron, published 2017).

B1: H4H12170P (antibody, human IgG4, V domains shown)
VH: QVQLVESGGGVVQPGRSLRLSCAASGFTFSGYGMHWVRQAPGKGLEWVALIWLDGSNDYYADSVKGRFTISRDNSKNTLYLQMNRLRAEDTAVYYCARDGPVAAIPDYWGQGTLVTVSS
VL: DIQMTQSPSTLSASVGDRVTITCRASQSISRWLAWYQLKPGKAPKLLIYKASSLESGVPSRFSGSGSGTDFTLTISSLQPDDFATYYCQQYNTYSYTFGQGTKLEIK
notes: Human IgG4 Fc with S108P hinge mutation (H4H)
B2: H4H12177P2 (antibody, human IgG4, V domains shown)
VH: EVQLVESGGGVVQRGESLRLSCSASDFIFKDYAMYWVRQIPGKGLEWISLISGDGDTTWYGDSVKGRFTISRDNNENSLFLQMNDLRTEDTAMYYCARDMGWNFFQLQYWGQGTLVTVSS
VL: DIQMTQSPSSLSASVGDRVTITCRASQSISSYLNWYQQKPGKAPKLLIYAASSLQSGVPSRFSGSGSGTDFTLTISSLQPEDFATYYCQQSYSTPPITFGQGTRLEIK
notes: as for B1
B3: H4H12168P (antibody, human IgG4, V domains shown)
VH: QVQLVESGGGVVQPGGSLRLSCAASGFTFGGHAMHWVRQAPGKGLEWLAVISSDGSNKQYADSVKGRFTISRDNPKNTLYLQMNSLRVGDTAIYYCAKEVAPRYYYYGLDVWGQGTTVTVSS
VL: DIQMTQSPSSLSASVGDRVTITCRASQDISNFLAWYQQKPGKVPKLLIYTASTLQSGVPSRFSGSGSGTDFTLTVSSLQPEDVATYYCQKYAGALTFGPGTKVDIK
notes: as for B1
B4: H4H11686N (antibody, V domains shown)
VH: QVQLVESGGGLVKPGGSLRLSCAASGFTFSDYYMSWIRQAPGKGLEWVSYISSSGNTIKYADSMKGRFTISRDNAKKSLFVEMNSLRAEDTAVYYCARYKSSSDYFDHWGQGTLVTVSS
VL: EIVLTQSPATLSLSPGERATLSCRASQSVRSYLAWYQQKPGQAPRLLIYDASNRATAIPARFSGSGSGTDFTLTISSLEPEDLAVYYCQQSGNWPLTFGGGTKVEIK
notes: also called H2M11686N

Target: T1, human C5 (human, UniProt P01031 19-1676)
T1 construct: Bought human C5 (EMD #204888, said elsewhere to be purified from plasma); also called hC5; complement component 5
Assay: SPR, mAb captured via anti-hFc, dissociation at pH7.4 vs pH6.0, 25C
Method in brief: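 Anti-C5 mAbs (human IgG4 Fc) captured on an amine-coupled mouse anti-human Fc surface; recombinant C5 dissociation followed by Biacore T200 in PBS-T (0.01M phosphate, 0.15M NaCl, 0.05% Tween-20) at pH7.4 or pH6.0. Dissociative half-life (t½) calculated from kd.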

| Binder | t1/2 Ratio pH7.4/pH6.0 |
| --- | --- |
| B1 | ≤ 0.5 |
| B2 | ≤ 0.5 |
| B3 | 1.5 |
| B4 | 2 |

Target: T2, human C5 R885C-mmh (human, UniProt P01031 19-1676)
T2 construct: also called human C5 variant R885C
Assay: SPR, mAb captured via anti-hFc, 25C
Method in brief: (§1)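 Anti-C5 mAbs were held by immobilised mouse anti-human Fc, and untagged or mmh-tagged C5 flowed 3 min, then buffer 8 min, in HBST pH 7.4.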

| Binder | 100 nM Human C5 R885C-mmh Bound (RU) | Kd | koff | kon | t1/2 |
| --- | --- | --- | --- | --- | --- |
| B1 | 427 RU | 0.447 nM | 0.00016 s⁻¹ | 357000 M⁻¹ s⁻¹ | 72 min |
| B2 | 177 RU | 13.2 nM | 0.00132 s⁻¹ | 100000 M⁻¹ s⁻¹ | 9 min |
| B3 | 144 RU | 3.27 nM | 0.000199 s⁻¹ | 60900 M⁻¹ s⁻¹ | 58 min |
| B4 | 253 RU | 0.534 nM | 9.49e-05 s⁻¹ | 178000 M⁻¹ s⁻¹ | 122 min |

Target: T3, human C5 R885H-mmh (human, UniProt P01031 19-1676)
T3 construct: also called human C5 variant R885H
Assay: SPR, mAb captured via anti-hFc, 25C
Method in brief: as §1

| Binder | 100 nM Human C5 R885H-mmh Bound (RU) | Kd | koff | kon | t1/2 |
| --- | --- | --- | --- | --- | --- |
| B1 | 442 RU | 0.394 nM | 0.000161 s⁻¹ | 409000 M⁻¹ s⁻¹ | 72 min |
| B2 | 232 RU | 4.01 nM | 0.000592 s⁻¹ | 148000 M⁻¹ s⁻¹ | 20 min |
| B3 | 197 RU | 4.05 nM | 0.000214 s⁻¹ | 52900 M⁻¹ s⁻¹ | 54 min |
| B4 | 259 RU | 0.491 nM | 0.000106 s⁻¹ | 216000 M⁻¹ s⁻¹ | 109 min |

Target: T2, human C5 R885C-mmh
Assay: SPR, mAb captured via anti-hFc, 37C
Method in brief: as §1

| Binder | 100 nM Human C5 R885C-mmh Bound (RU) | Kd | koff | kon | t1/2 |
| --- | --- | --- | --- | --- | --- |
| B1 | 61 RU | 2.05 nM | 0.00087 s⁻¹ | 424000 M⁻¹ s⁻¹ | 13 min |
| B2 | 31 RU | 47.6 nM | 0.00507 s⁻¹ | 107000 M⁻¹ s⁻¹ | 2 min |
| B3 | 21 RU | 8.9 nM | 0.000569 s⁻¹ | 63800 M⁻¹ s⁻¹ | 20 min |
| B4 | 69 RU | 2.78 nM | 0.000791 s⁻¹ | 284000 M⁻¹ s⁻¹ | 15 min |

Target: T4, monkey C5-mmh (monkey, UniProt P01031 19-1676 (human entry), limits assumed)
T4 construct: Recombinant monkey C5 with a C-terminal myc-myc-hexahistidine tag
T4 chain: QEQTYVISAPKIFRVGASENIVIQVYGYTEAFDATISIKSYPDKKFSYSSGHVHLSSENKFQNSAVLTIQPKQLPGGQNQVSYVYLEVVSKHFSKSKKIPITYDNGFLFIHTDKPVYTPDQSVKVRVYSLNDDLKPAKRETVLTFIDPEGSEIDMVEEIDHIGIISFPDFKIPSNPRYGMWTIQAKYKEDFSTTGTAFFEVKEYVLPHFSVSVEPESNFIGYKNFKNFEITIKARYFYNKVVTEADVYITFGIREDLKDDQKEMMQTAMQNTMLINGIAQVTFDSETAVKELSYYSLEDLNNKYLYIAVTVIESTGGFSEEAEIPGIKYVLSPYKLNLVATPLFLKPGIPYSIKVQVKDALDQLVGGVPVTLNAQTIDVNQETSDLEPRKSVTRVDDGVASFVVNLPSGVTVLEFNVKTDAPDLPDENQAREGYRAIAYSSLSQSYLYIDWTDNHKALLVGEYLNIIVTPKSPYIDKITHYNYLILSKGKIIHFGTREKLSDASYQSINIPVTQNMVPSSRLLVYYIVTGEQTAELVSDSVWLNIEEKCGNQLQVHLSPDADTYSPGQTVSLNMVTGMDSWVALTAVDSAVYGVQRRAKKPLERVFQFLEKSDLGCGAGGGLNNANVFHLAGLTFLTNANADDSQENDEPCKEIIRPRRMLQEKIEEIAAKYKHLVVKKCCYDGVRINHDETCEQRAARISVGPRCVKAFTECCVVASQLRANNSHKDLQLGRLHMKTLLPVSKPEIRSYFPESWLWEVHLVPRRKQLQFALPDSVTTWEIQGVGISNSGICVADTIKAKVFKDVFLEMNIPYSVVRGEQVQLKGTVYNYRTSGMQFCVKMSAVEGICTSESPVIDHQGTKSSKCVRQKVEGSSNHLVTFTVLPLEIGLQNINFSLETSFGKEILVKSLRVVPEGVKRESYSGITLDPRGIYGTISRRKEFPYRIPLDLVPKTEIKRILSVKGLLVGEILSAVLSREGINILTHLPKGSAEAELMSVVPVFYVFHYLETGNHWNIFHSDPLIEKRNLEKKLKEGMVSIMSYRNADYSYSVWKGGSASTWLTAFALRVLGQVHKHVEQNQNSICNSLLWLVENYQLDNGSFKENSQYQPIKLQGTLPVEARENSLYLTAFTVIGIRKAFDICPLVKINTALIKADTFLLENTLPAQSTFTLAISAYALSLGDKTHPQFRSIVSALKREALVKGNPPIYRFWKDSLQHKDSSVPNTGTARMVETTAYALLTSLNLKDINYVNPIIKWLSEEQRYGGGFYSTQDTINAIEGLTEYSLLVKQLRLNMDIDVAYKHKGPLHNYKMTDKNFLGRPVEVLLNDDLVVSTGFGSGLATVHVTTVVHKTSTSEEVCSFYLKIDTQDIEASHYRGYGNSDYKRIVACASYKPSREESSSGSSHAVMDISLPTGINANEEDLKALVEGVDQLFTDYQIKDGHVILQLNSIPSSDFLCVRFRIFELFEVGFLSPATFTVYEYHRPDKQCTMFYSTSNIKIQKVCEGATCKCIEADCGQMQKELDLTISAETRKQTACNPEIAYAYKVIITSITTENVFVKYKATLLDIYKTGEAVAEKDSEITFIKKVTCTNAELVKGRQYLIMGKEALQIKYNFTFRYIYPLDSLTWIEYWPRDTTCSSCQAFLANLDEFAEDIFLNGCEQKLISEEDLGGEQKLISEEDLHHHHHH
Assay: SPR, mAb captured via anti-hFc, 37C
Method in brief: as §1

| Binder | 100 nM monkey C5-mmh Bound (RU) | Kd | koff | kon | t1/2 |
| --- | --- | --- | --- | --- | --- |
| B1 | 60 RU | 1.67 nM | 0.000871 s⁻¹ | 521000 M⁻¹ s⁻¹ | 13 min |
| B2 | 27 RU | 47.7 nM | 0.00717 s⁻¹ | 150000 M⁻¹ s⁻¹ | 2 min |
| B3 | 29 RU | 12.7 nM | 0.000676 s⁻¹ | 53300 M⁻¹ s⁻¹ | 17 min |
| B4 | 195 RU | 8.88 nM | 0.00207 s⁻¹ | 233000 M⁻¹ s⁻¹ | 6 min |

Target: T3, human C5 R885H-mmh
Assay: SPR, mAb captured via anti-hFc, 37C
Method in brief: as §1

| Binder | 100 nM Human C5 R885H-mmh Bound (RU) | Kd | koff | kon | t1/2 |
| --- | --- | --- | --- | --- | --- |
| B1 | 64 RU | 1.5 nM | 0.000839 s⁻¹ | 559000 M⁻¹ s⁻¹ | 14 min |
| B2 | 51 RU | 10 nM | 0.00276 s⁻¹ | 276000 M⁻¹ s⁻¹ | 4 min |
| B3 | 29 RU | 50.4 nM | 0.00123 s⁻¹ | 24300 M⁻¹ s⁻¹ | 9 min |
| B4 | 74 RU | 1.91 nM | 0.0008 s⁻¹ | 419000 M⁻¹ s⁻¹ | 14 min |
